Values of other authors in patent US6713294B1, “DNA glycosylases and their use” (priority 1996, dated 2004).

Columns and labels:
[1] = system: imidazole ring-opened form of 7-methylguanine-DNA substrate; conditions: Boiteux et al. (1990); cited from earlier work
3-methyladenine-DNA = conditions: Bjelland et al. (1994); cited from earlier work

Molecule	Kcat on imidazole ring-opened form of 7-methylguanine-DNA [1] [min⁻¹]	Turnover number on 3-methyladenine-DNA (3-methyladenine-DNA) [min⁻¹]
FPG protein: formamido-pyrimidine-DNA glycosylase (protein, UniProt P05523 2-269, looked up) Formamidopyrimidine-DNA …: PELPEVETSRRGIEPHLVGATILHAVVRNGRLRWPVSEEIYRLSDQPVLSVQRRAKYLLLELPEGWIIIHLGMSGSLRILPEELPPEKHDHVDLVMSNGKVLRYTDPRRFGAWLWTKELEGHNVLTHLGPEPLSDDFNGEYLHQKCAKKKTAIKPWLMDNKLVVGVGNIYASESLFAAGIHPDRLASSLSLAECELLARVIKAVLLRSIEQGGTTLKDFLQSDGKPGYFAQELQVYGRKGEPCRVCGTPIVATKHAQRATFYCRQCQK	1.4	
AlkA: Escherichia coli inducible 3-methyladenine-DNA glycosylase II (protein, UniProt P04395 1-282, looked up) DNA-3-methyladenine …: MYTLNWQPPYDWSWMLGFLAARAVSSVETVADSYYARSLAVGEYRGVVTAIPDIARHTLHINLSAGLEPVAAECLAKMSRLFDLQCNPQIVNGALGRLGAARPGLRLPGCVDAFEQGVRAILGQLVSVAMAAKLTARVAQLYGERLDDFPEYICFPTPQRLAAADPQALKALGMPLKRAEALIHLANAALEGTLPMTIPGDVEQAMKTLQTFPGIGRWTANYFALRGWQAKDVFLPDDYLIKQRFPGMTPAQIRRYAERWKPWRSYALLHIWYTEGWQPDEA		0.03
